Experimental data as given in the DeepSol protein solubility set.

assay: soluble on expression in E. coli; label from the status in PepcDB or PDB records

Row | Sequence | soluble on expression in E. coli
1 | MNKIIKYIGASAVVCMMAGCTTNFEDFNTNPYQPSKVPASNLLSTMFNVYACPQQNACQEINCMWASFSGQVTATANWSFGKNIFAYYNASEGHNDSSWGRLYGYIYPSFFLVENSTEKKGVIYAMAQLTRVYGMQLLASLQGPIPYTQMKAGETEAPYDNEQTVWHAMFDDLDNAITILKSAATFGVNQDLAVVDQFYKGDCSKWLKFANTLKLRMAIRISGVEPEYAQTKAQEAVLGGVMESVGDSSYDTTNGGINENGYAIVSGWPEVRANACLVSYMNGYNDPRRPAYFTPQTQTAAGGYVGVRSGSAEIPEPTVYANYSKLFIATDKTLPQPVMYAAEAAFLRAEGALKGWNMGGDAKTFYEKGVRLSFEEFGVSGADDYLADATSIPGNYVDNLIAGHTGNNYTNQSSITIKWEDGADDAKKLERVLTQKWIACYPDPMNGWADFRRTGYPRIFPATESMNADCNTGRGQRRLRFTRSEYNNNKANVEAAVSMLSNGKDSNGTDLWWAMKENGTY | not soluble
2 | MWSVTDSPLDDAIQEAKSAAQKAGFDTETFAAVQSKEGRTSFAFELEGLGSASSVSELEEAIEQIEGVDAKIVYPSAMAWISASRTLDPTLIVDAFQQHGVTATLTDSSLRRRLAWTDVEEGRYRRARARRFGSRVDEESRRFEIARREGFLHKRDETTRVVETTEVLFTARSLMTKAR | not soluble
3 | MESRESSKDRLLILPSMGESYTEYVDSYLNLELLERGERETPIFLESLTRQLTQKIYELIKTKSLTADTLQQISDKYDGVVAENKLLFLQRQYYVDDEGNVRDGRNNDKIYCEPKHVYDMVMATHLMNKHLRGKTLHSFLFSHFANISHAIIDWVQQFCSKCNKKGKIKPLKEYKR | soluble
4 | MGSDKIHHHHHHMELTGHMKNNRYSIFRNAICIAATAGMLFGCGPDKKPVEKVAEEVVLQPMVTPDFNSDSSYEYVSRQVAFGPRVPNTKPHMDCGEYLAKFFTKHGGWVYRQQFSAKAFDGTDLRLKNIIVSYNQKATKRILLAAHWDTRPFADQDEVDPKKPIDGANDGASGVGILMELARVINLAEKKPDVGFDIILFDGEDYGQPMYYPGPYQNDSWCLGSQYWAKHKFPANYSAYYGILLDMVGAKDATFAKEGVSVENAPSVVNNVWTTAARLGYGKHFINVMSQPITDDHTYINKLALIPMIDIIEYENSDDVYFGSYWHTHNDNMNIIDKNTLKAVGQTLIEVLYREKL | not soluble
5 | MGIRPVNRKRLSMDKVFIEQLEVITTIGVYDWEQQIKQKLVLDLEMAHDNRAAGKSDDVADALDYAQVSQAVLEHIEQGRFLLVERVAEEVAELIMTRFAVPWLRIRLTKPGAVPQAKGVGVIIERARG | not soluble
6 | MGSDKIHHHHHHMNYLVYQSYGSKDILNECCYSILSLLKHGINKNETRIVIYTDQPEYFSFLPAATLEFVQMSADIIADYKGVHAFVHRLKIKILQDAVTRFQGTILYVDSDIYFLKSIEPLFASISKTNLLMCNNEGRIHTGGNRIFEKFSAFIKKNTDYLKQHHIPIPYDITMWNAGVIGFLSTEKELLEKVLYTNDTIYNKFQSHVVEQLSFSYQLQKQGTLNAATDYLYHYWNFKEFRIVLAEFFKYHLNRGSVEQMIQDIDSIRPDVLIKPKLEYETLPFLKKNIRKLGGKKNRWKFPAYTIGQAATI | not soluble
7 | MAHHHHHHMMSADPNSFEAIRPKLTAQTLQDIEGLDPQKYGFGREECCGPIPTKIIGSMSLREHIFLNTRMPAREWDKRTENVPGFKELSQRVKHALPDASFTVSHLDQDTEDSILHCKVDDDKKAVIITQYSSVSEPYELPWEVKGTLAVDRSGEYFIFVCSHFTRDARCGYCGSVLIDLFRHALLEKMGAGGTARVTVCSCSHVGGHVYAGNVIIYSRHGGICYGLFKPEDVLPVVDAIAEDKGAIPESLRNRIRGQMGSNAS | soluble
8 | MQLTAKASLTNALLISICTPDFKGDEATESLAELARLVTTLGFKVVGTQSQKQSSTKKVNVLGLGKLAEIAHLTGNQGEVEDMEEVEDLSVGEQTDDVEFMVNSSDIPSDNLPFACADVVVFDCDLSPSQLRNVENQLGVEVFDRTGIIIEIFSRHARTKTAKLQVEIARLNYVAPRLRETSCGDKERQMGKGAGETTLELNRRAVRDQLAELKRELVSVQHEMKGRRTQRSELFCVALVGYTNAGKSSMMRAITGSDVEGENKLFATLDTTVRALFPITQPRILVSDTVGFIKKLPHDLVASFHSTLAEAQDASLLLYVVDASDPSFRAQLDVVHEVLDEVGVEDSKKLLVLNKSDQLSIEQQQALMEEFPNAMMTSARNPADVSKLHKYIVGIAQEEMIEEEIIVPYTANGIIGEIRSRMSVTKEEYENSHIKLTVRSNAIDLARLKKRMLSLLEHHHHHH | not soluble
9 | MKAFDQVNHSLLLQKLHDFGINPLFCNWFHDFLSSRTFSVKVNNHIDPNIHPISSGVPKGSVSGPFLFLIFINSLLLSVPPSISCSAFADDLKVYSHSPPLIQTTIDLITTWSENNKLPLAVHKAALLNKLGFSSNCVLLLAPLINSLVCRLLAASRTGVSTVAHSKTCLLHLGKKNPKTVYKINNLPISPSNIARDLGILTDSKLTFKPHIKKIVSLALLRCKQLLKSFKSLCPEFYCNLFKTYILPLIEYGSAVYSPKPSSSLSTLLEKPLRWYSQKVLQKFNVSYSLYNDRLKSLNLHSIRHRRLKSKLILLYKFCCGTSFLRRKETFFKLSTSSRRPMRIICHNPSSNNFFSDTISFWNAITNNCDTFLSPIHFENLVDNSITRL | not soluble
10 | MRIWNRIRCISTIRKNPTCQDVKAPLVSSQVFDPDVWSWNSAPESSLDLPIDSSPNFSMPPATSSETEFAENEESTSSSDDKKKRSEVIEENRSDGHAPIKSALSILMRSLQKSSSMTTSLSDIDVTLFNFHSTKFAERLLNRNVSSVVIVESSHVFSKNAKKFASEFSNVSAYRADIYTLMGVGRKKTAQFPRKMMFADFGKNETPEQYENIHPLTLTSAESSSNSEHLHAKFRRPHLLGVLPTPTIQRTILDSMIQHVLLHHSGNDEDTIFRYGDTNLLTFLGSGILAQYTCSTDNRLNFLSHQHRRHSALFNKLFEVKMLQTRQSEDPETAEIPIGHPPTSFHPLLPTAKKITHEKKLSDVNLTNGLQYPVQILPQKHLKIGGNEVTTENGMGRMLVDYACFMTQIGRQPNAKAVDQVVRLLWPESALSIPADILGDHKIGQLPNDHLDVIFQHVHEELHNTSIAKTYCNELKIKRAI | not soluble
11 | DRLTVVKQYVDNVLNKASDTYHGDKPSPLLADGVDPRTGQQLEWIFPDGRRAVLSNFSAQQNLMRVMSGLSQLSGDPRYQKRAEDIVRYHFQNYQDPSGLLYWGGHRFVDLKTLQPEGPSEKEMVHELKNAYPYYDLMFSVDSDATARFIRGFWNAHVYDWRILETSRHGEYGKPMGALWESKFEQQPPFFATKGLSFLNAGNDLIYSASLLYKHQQDQGALTWAKRLADQYVLPRDAKTGLGVYQFTQALKREEPTDDADTHSKFGDRAQRQFGPEFGPTALEGNMMLKGRTSTLYSENALMQLQLGKDLGPQGQDLLKWTVDGLKAFAKYAYNDQDNTFRPMIANGQDLSNYTLPRDGYYGKKGTVLKPYKAGNEFLISYARAYAIDNDPLLWKVARGIANDQGLGDIGTAPGKEVKVNMDTTNSDPYALFALLDLYHASQVADYRKLAEKIGDNIIKIRYIDGFFMASSDRQYADVDAIEPYALLALEASLRNKPQAVAPFLNGAGFTEGAYRMDDGSARVSTRDNELFLLNVGEKLQPN | soluble
12 | MGSDKIHHHHHHMSLHSDILVVGAGPAGLSFAAELAGSGLKVTLIERSPLTVLQNPPYDGREIALTHFSREIMQRLGMWDKIPENEIYPLRDAKVLNGRSDYQLHFPQPTEARGEPADCLGYLISNHNIRRAAYEVVSQLDNVSILTDTAVKEVKTSDNEAQVFLENGDILTARLLLAADSRFSQTRRQLGISSDMHDYSRTMFVCRMKHTLSNQHTAYECFHYGRTIALLPLEKRLTNTVITVDTDKINSVQNLSPEELAASVKEQLKGRLGDMELVSSIHHYPLVGMIAKRFYGKRSALIGDAAVGMHPVTAHGFNLGLSSADILAKLILEAEQRGQDIGAASLLEKYSSKHMLHAHPLYHGTNMMLKLFTNETAPAKLLRGLVLRAGNNFPPLKKLITKQLTG | not soluble
13 | MPTTVNDLLRTYPADLGGVDREAMARCIEECLRCAQACTACADACLSEPTVADLTKCIRTDMDCADVCTATAAVLSRHTGYDANVTRAVLQACATVCAACGDECARHAGMHEHCRVCAEACRSCEQACQELLAGLGLEHHHHHH | not soluble
14 | MFGYPGGAVLDIYDALHTVGGIDHVLVRHEQAAVHMADGLARATGDVGVVLVTSGPGATNAITGIATAYMDSIPLVILSGQVATSLIGYDAFQECDMVGISRPVVKHSFLVKQTEDIPLVLKKAFWLAASGRPGPVVVDLPKDILNPAKKMPYAWPETVSMRSYNPTTSGHKGQIKRALQTLASAKKPVVYVGGGAISAACYAPLRHIIETFNLPVVSSLMGLGAFPATHRQSLGMLGMHGTYEANMTMHNADVIFAVGVRFDDRTTNNLAKYCPNATVLHIDIDPTSISKTVNADIPVVGDARLVLEQMLELLAQDAPSQPQDDIRDWWQQIESWRARQCLKYDAESESIKPQAVIETLWRLTKGDAYVTSDVGQHQMFAALYYPFDKPRRWINSGGLGTMGFGLPAALGVKMALPKEMVVCVTGDGSIQMNIQELSTALQYELPVLVLNLNNRYLGMVKQWQDMIYSGRHSQSYMQSLPDFVRLAEAYGHVGLQINRPDELESKLSEALEHVRNNRLVFVDVTVDGSEHVYPMQIRGGGMDEMWLSKTERT | not soluble
15 | MGSDKIHHHHHHMNLKRRRLLDLKSEIFEKIIKIEGNKIDIKPPKKIPQPILSPSREGFDSRNTYNPAVIKEKDRIVMLYRAESKEDKLTGRIGLAISYDGINFFRHPEPIIEPEYKWESVGVEDPRIVKVGKTYYMTYTGYDGKTARLCLATSKNMLTWKKHGPIFEGFEYKKNNIKGWTKSGAILPKKLEKGNFKGNYLMYFGDSNIWMAVSKDLVNWEYMKEPVLSPREGYFDNVLVEPGPPLFETSYGIALIYNSAGRYGDKLKYKVGVVIFDKEYPDKVVARTETPLMVPEYEWELYGHVNNVVFVEGMVEHENKILLYYGGADRHIGLAYWTTDL | not soluble
16 | MLPFDPSTRYDRQVRLWGEEGQASIGSTSACVLGSDSLATEILKSLVLAGVQSFYVVDDAKVEQADIGQNFFLHADDIGRSRAEATLEKLTELNPSVSGSASSQPPTALAMEDVEKLTTFSVVVAANQNEEIDTTFAKVLYNIRVPFICIKTFGLIGTIRICIKEHTIANSHEENPRPDLRLDAPFSKLIEMINETNLDEMTLEQLRHTPYILLHFKALEVFRKQRNDPEAFPSTTAERKELQAILMSFRRSSEESGTKDSENFDEAKAAVIRAFQRTTIGSSVKSILSSPQCSTSTRPFWLICEALRRFVTENNNLLPLRGTLPDMTSDSSRYTRLATLFHEKALSDAQEVLRLTREVEKERGVGDVISDDVCYRFCKNADRIRVQYGDVLDYNEETKAIVEKIRESNIDEETRNQKVDEATWMLLMRAVGRFQKEKGRYPGTNGVPVSIDAQDLKKRVEVLIREALKDEQDFTSISNKVTDTAIAEICRFGAAELHVISSYVGGIAAQEIIKLATNQYVPIDNTFIFDGHTQESATFKF | not soluble
17 | MEPEDTQLKEDIKTTVNYIKQHGVEFENKLLEDERFSFIKKDDPLHEYYTKLMNEPTDTVSGEDNDRKSEREIARPPDFLFSQYDTGISRRDMEVIKLTARYYAKDKSIVEQMISKDGEARLNFMNSSHPLHKTFTDFVAQYKRVYSFTGQEIKKSKRTILDNCFERTQYWEFEKDKDREHDKLVELCKIQFAAIPWDKFTQVAKFSIPEDTEIFEGSLDLEQMRLRRVQTGIKLFDSIKPTNEEEKIVSDQGKQKGGDSKGKKRKIRAVGETRLKKSKK | soluble
18 | MGRKIVFFDIDGTLLDEQKQLPLSTIEAVRRLKQSGVYVAIATGRAPFMFEHVRKQLGIDSFVSFNGQYVVFEGNVLYKQPLRREKVRALTEEAHKNGHPLVFMDAEKMRASIGDHPHIHVSMASLKFAHPPVDPLYYENKDIYQALLFCRAEEEEPYVRNYPEFRFVRWHDVSTDVLPAGGSKAEGIRMMIEKLGIDKKDVYAFGDGLNDIEMLSFVGTGVAMGNAHEEVKRVADFVTKPVDKEGIWYGLKQLQLIR | soluble
